Results from patent US20240301061A1.

Legend:
[1] = biological target: CD3ε/δ (UniProt P07766); assay: SPR, antibody captured on anti-human Fc surface
[2] = biological target: CD3ε/δ (UniProt P07766); assay: SPR

Chain of CD3ε/δ (P07766 23-126, stated change not applied, chain 1 of 2): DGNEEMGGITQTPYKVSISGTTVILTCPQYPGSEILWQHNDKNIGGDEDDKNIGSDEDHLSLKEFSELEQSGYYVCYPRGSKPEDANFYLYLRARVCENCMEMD
Chain of CD3ε/δ (P04234 22-105, stated change not applied, chain 2 of 2, further chain): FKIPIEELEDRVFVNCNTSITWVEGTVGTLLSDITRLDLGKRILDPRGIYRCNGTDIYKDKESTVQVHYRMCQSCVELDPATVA

Kd [1] [nM]	koff [1] [s⁻¹]	kon [1] [M⁻¹ s⁻¹]	Kd [2] [nM]	koff [2] [s⁻¹]	kon [2] [M⁻¹ s⁻¹]	Binder
27.1	0.00296	109000	–	–	–	chimeric sp34 (antibody, V domains shown) VH: EVQLVESGGGLVQPKGSLKLSCAASGFTFNTYAMNWVRQAPGKGLEWVARIRSKYNNYATYYADSVKDRFTISRDDSQSILYLQMNNLKTEDTAMYYCVRHGNFGNSYVSWFAYWGQGTLVTVSS VL: QAVVTQESALTTSPGETVTLTCRSSTGAVTTSNYANWVQEKPDHLFTGLIGGTNKRAPGVPARFSGSLIGDKAALTITGAQTEDEAIYFCALWYSNLWVFGGGTKLTVL
–	–	–	25.9	0.00188	72500	humanized sp34 scFv BG561P (Fc fusion, not shown: a dimerising Fc or GST) scFv: EVQLVESGGGLVQPGGSLRLSCAASGFTFNTYAMNWVRQAPGKGLEWVARIRSKYNNYATYYADSVKDRFTISRDDAKNSLYLQMNSLRAEDTAVYYCVRHGNFGNSYVSWFAYWGQGTLVTVSSGGGGSGGGGSGGGGSEIVLTQSPATLSVSPGERATLSCRSSTGAVTTSNYANWVQQKPGQAPRGLIGGTNKRAPGIPARFSGSLSGDEATLTISSLQSEDFAVYYCALWYSNLWVFGGGTKVEIK
